Source: article PMC8635412, “Identification of disease-linked hyperactivating mutations in UBE3A through large-scale functional variant analysis” (Nature Communications, 2021)
Residue numbers refer to the chain shown, from its start. Numbers in names are those of the source.

Molecular target: T1, N-terminal fluorescein-labeled ubiquitin (UniProt P0CG48 1-76, fluorescein on the N-terminus)
T1 construct: source: bought: Anaspec
Assay: fluorescence polarisation; 1 uM fluorescein-labeled ubiquitin with varied concentrations of UBE3A HECT domain, 384-well plate, 30 °C; one-site specific binding model
Conditions: both partners purified

B1: UBE3A HECT domain, wild type (domain or fragment, human, UniProt Q05086-2 495-852, looked up)
chain: QLNPYLRLKVRRDHIIDDALVRLEMIAMENPADLKKQLYVEFEGEQGVDEGGVSKEFFQLVVEEIFNPDIGMFTYDESTKLFWFNPSSFETEGQFTLIGIVLGLAIYNNCILDVHFPMVVYRKLMGKKGTFRDLGDSHPVLYQSLKDLLEYEGNVEDDMMITFQISQTDLFGNPMMYDLKENGDKIPITNENRKEFVNLYSDYILNKSVEKQFKAFRRGFHMVTNESPLKYLFRPEEIELLICGSRNLDFQALEETTEYDGGYTRDSVLIREFWEIVHSFTDEQKRLFLQFTTGTDRAPVGGLGKLKMIIAKNGPDTERLPTSHTCFNVLLLPEYSSKEKLKERLLKAITYAKGFGML
notes: UBE3A, human, HECT domain; residue numbers follow human UBE3A isoform I (NP_001361390.1); Cloned into pRSFDuet-1 with an octa-histidine-GST double tag and a TEV site; also called WT HECT domain; WT UBE3A; not shown: His8, N-terminal, cleaved; GST, N-terminal, cleaved
Work on B1 yielded a Kd of 65.7 ± 28.5 µM.

B2: UBE3A HECT domain Q588E (domain or fragment, human, UniProt Q05086-2 1-852, looked up)
chain: B1 chain with Q94E
notes: UBE3A, human, HECT domain with the patient variant Q588E; residue numbers follow human UBE3A isoform I (NP_001361390.1); Made by site-directed mutagenesis of the m1 construct; Q588E is a variant found in individuals (ClinVar); also called Q588E HECT domain; UBE3A Q588E; not shown: His8, N-terminal, cleaved; GST, N-terminal, cleaved
For B2, the Kd was 18 ± 1.5 µM.
